Assay results as given in patent US10738094B2, “Peptides and combination of peptides for use in immunotherapy against ovarian cancer and other cancers” (immatics biotechnologies GmbH, priority 2015, dated 2020).

What follows are substances tested against HLA-A*02:01 (Homo sapiens, UniProt P04439, D140Y/D185E/D98H/E176V/E277Q/G131W/G231S/I119V/I121R/I166T/I218V/L300P/L318F/N151K/N90K/P208A/P217A/Q86G/Q94H/R138H/R169H/T345S) (assay: MHC binding assay (UV-ligand exchange, beta2m ELISA)). Conditions: binding to HLA-A*02:01 ranged by peptide exchange yield (UV-ligand exchange, β2m ELISA).
Method in brief: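 UV-cleavable ligand in peptide-MHC complexes was exchanged for test peptide. Exchange yield came from an ELISA on streptavidin-captured complexes diluted 100 fold, detecting β2m with HRP anti-β2m (2 ug/ml, 1 h, 37° C.), TMB, A450.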

Row | Peptide exchange | Substance
1 | “+++” (≥50 = +++) | 97 (SLINGSFLV; listed as Homo sapiens) [compound 97]
2 | “++++” (≥75% = ++++) | 7 (SLVGLLLYL; listed as Homo sapiens) [compound 7]
3 | “+++” (≥50 = +++) | 95 (SVIPQIQKV; listed as Homo sapiens) [compound 95]
4 | “+++” (≥50 = +++) | 183 (FGLDLVTEL; listed as Homo sapiens) [compound 183]
5 | “+++” (≥50 = +++) | 473 (AMATESILHFA; listed as Homo sapiens) [compound 473]
6 | “++” (≥20% = ++) | 211 (LLWPGAALL; listed as Homo sapiens) [compound 211]
7 | “+++” (≥50 = +++) | 463 (SLVESHLSDQLTL; listed as Homo sapiens) [compound 463]
8 | “+++” (≥50 = +++) | 370 (SLLQDLVSV; listed as Homo sapiens) [compound 370]
9 | “+++” (≥50 = +++) | 486 (AVMESIQGV; listed as Homo sapiens) [compound 486]
10 | “+++” (≥50 = +++) | 599 (YLLNDASLISV; listed as Homo sapiens) [compound 599]
11 | “+++” (≥50 = +++) | 194 (ALPLFVITV; listed as Homo sapiens) [compound 194]
12 | “+++” (≥50 = +++) | 571 (LLLTTIPQI; listed as Homo sapiens) [compound 571]
13 | “+++” (≥50 = +++) | 120 (ALLGIPLTLV; listed as Homo sapiens) [compound 120]
14 | “+++” (≥50 = +++) | 20 (RMIEYFIDV; listed as Homo sapiens) [compound 20]
15 | “+++” (≥50 = +++) | 85 (KMSELRVTL; listed as Homo sapiens) [compound 85]
16 | “+++” (≥50 = +++) | 136 (YLADPSNLFVV; listed as Homo sapiens) [compound 136]
17 | “+++” (≥50 = +++) | 342 (HIYDKVMTV; listed as Homo sapiens) [compound 342]
18 | “+++” (≥50 = +++) | 75 (GLLEVMVNL; listed as Homo sapiens) [compound 75]
19 | “+++” (≥50 = +++) | 589 (KLYPQLPAEI; listed as Homo sapiens) [compound 589]
20 | “+++” (≥50 = +++) | 295 (VLDRESPNV; listed as Homo sapiens) [compound 295]
21 | “++++” (≥75% = ++++) | 108 (ALFPGVALLLA; listed as Homo sapiens) [compound 108]
22 | “++++” (≥75% = ++++) | 466 (VLIANLEKL; listed as Homo sapiens) [compound 466]
23 | “+++” (≥50 = +++) | 23 (VLLDDIFAQL; listed as Homo sapiens) [compound 23]
24 | “+++” (≥50 = +++) | 134 (YLQELIFSV; listed as Homo sapiens) [compound 134]
25 | “+++” (≥50 = +++) | 537 (TLAPGEVLRSV; listed as Homo sapiens) [compound 537]
26 | “+++” (≥50 = +++) | 399 (YLFEPLYHV; listed as Homo sapiens) [compound 399]

Row | Peptide exchange | Substance
27 | “++” (≥20% = ++) | 431 (SLVNVVPKL; listed as Homo sapiens) [compound 431]
28 | “+++” (≥50 = +++) | 12 (SLWPDPMEV; listed as Homo sapiens) [compound 12]
29 | “+++” (≥50 = +++) | 454 (KLPPPPPQA; listed as Homo sapiens) [compound 454]
30 | “+++” (≥50 = +++) | 591 (SMAELDIKL; listed as Homo sapiens) [compound 591]
31 | “+++” (≥50 = +++) | 179 (KVLNELYTV; listed as Homo sapiens) [compound 179]
32 | “++” (≥20% = ++) | 43 (VLSSLEINI; listed as Homo sapiens) [compound 43]
33 | “+++” (≥50 = +++) | 600 (ALAAPDIVPAL; listed as Homo sapiens) [compound 600]
34 | “++” (≥20% = ++) | 412 (YLDDLNEGVYI; listed as Homo sapiens) [compound 412]
35 | “++” (≥20% = ++) | 392 (ALLHPQGFEV; listed as Homo sapiens) [compound 392]
36 | “+++” (≥50 = +++) | 122 (FLLAEDDIYL; listed as Homo sapiens) [compound 122]
37 | “++” (≥20% = ++) | 209 (KLIESKHEV; listed as Homo sapiens) [compound 209]
38 | “++” (≥20% = ++) | 273 (NLFQSVREV; listed as Homo sapiens) [compound 273]
39 | “+++” (≥50 = +++) | 542 (RVWDISTVSSV; listed as Homo sapiens) [compound 542]
40 | “+++” (≥50 = +++) | 357 (SMHDLVLQV; listed as Homo sapiens) [compound 357]
41 | “+++” (≥50 = +++) | 356 (KLLGKLPEL; listed as Homo sapiens) [compound 356]
42 | “++” (≥20% = ++) | 47 (ILLSVPLLVV; listed as Homo sapiens) [compound 47]
43 | “++” (≥20% = ++) | 226 (MLYVVPIYL; listed as Homo sapiens) [compound 226]
44 | “+++” (≥50 = +++) | 530 (VMYADIGGMDI; listed as Homo sapiens) [compound 530]
45 | “+++” (≥50 = +++) | 476 (ALMERTGYSMV; listed as Homo sapiens) [compound 476]
46 | “++” (≥20% = ++) | 115 (AIAGAGILYGV; listed as Homo sapiens) [compound 115]
47 | “+++” (≥50 = +++) | 587 (VMNDRLYAI; listed as Homo sapiens) [compound 587]
48 | “++” (≥20% = ++) | 494 (ALQPEPIKV; listed as Homo sapiens) [compound 494]
49 | “+++” (≥50 = +++) | 362 (TLYGLSVLL; listed as Homo sapiens) [compound 362]
50 | “++” (≥20% = ++) | 222 (NLIENVQRL; listed as Homo sapiens) [compound 222]
51 | “+++” (≥50 = +++) | 567 (SLLPLDDIVRV; listed as Homo sapiens) [compound 567]
52 | “++” (≥20% = ++) | 127 (KIGDEPPKV; listed as Homo sapiens) [compound 127]

Row | Peptide exchange | Substance
53 | “+++” (≥50 = +++) | 302 (ALLQEGEVYSA; listed as Homo sapiens) [compound 302]
54 | “++” (≥20% = ++) | 318 (GLINTGVLSV; listed as Homo sapiens) [compound 318]
55 | “+++” (≥50 = +++) | 255 (VLASYNLTV; listed as Homo sapiens) [compound 255]
56 | “+” (≥10% = +) | 116 (YHIDEEVGF; listed as Homo sapiens) [compound 116]
57 | “++++” (≥75% = ++++) | 126 (VLAYFLPEA; listed as Homo sapiens) [compound 126]
58 | “+++” (≥50 = +++) | 394 (LLAVIGGLVYL; listed as Homo sapiens) [compound 394]
59 | “++++” (≥75% = ++++) | 237 (ALLEASGTLLL; listed as Homo sapiens) [compound 237]
60 | “+++” (≥50 = +++) | 193 (QLLDADGFLNV; listed as Homo sapiens) [compound 193]
61 | “++” (≥20% = ++) | 99 (ALVSKGLATV; listed as Homo sapiens) [compound 99]
62 | “++” (≥20% = ++) | 227 (ALMNTLLYL; listed as Homo sapiens) [compound 227]
63 | “+++” (≥50 = +++) | 245 (SMIDDLLGV; listed as Homo sapiens) [compound 245]
64 | “+++” (≥50 = +++) | 248 (FLFPNQYVDV; listed as Homo sapiens) [compound 248]
65 | “+++” (≥50 = +++) | 169 (NLPEYLPFV; listed as Homo sapiens) [compound 169]
66 | “+++” (≥50 = +++) | 219 (KLSDIGITV; listed as Homo sapiens) [compound 219]
67 | “+++” (≥50 = +++) | 528 (SVAEGRALMSV; listed as Homo sapiens) [compound 528]
68 | “++” (≥20% = ++) | 459 (ALITEVVRL; listed as Homo sapiens) [compound 459]
69 | “++” (≥20% = ++) | 353 (YLFEMDSSL; listed as Homo sapiens) [compound 353]
70 | “++” (≥20% = ++) | 220 (LLQKFVPEI; listed as Homo sapiens) [compound 220]
71 | “+++” (≥50 = +++) | 281 (ILRESTEEL; listed as Homo sapiens) [compound 281]
72 | “+++” (≥50 = +++) | 546 (VMIAGKVAVV; listed as Homo sapiens) [compound 546]
73 | “+++” (≥50 = +++) | 254 (TLLAFIMEL; listed as Homo sapiens) [compound 254]
74 | “+++” (≥50 = +++) | 503 (SLNHFTHSV; listed as Homo sapiens) [compound 503]
75 | “+++” (≥50 = +++) | 25 (FLPDEPYIKV; listed as Homo sapiens) [compound 25]
76 | “+++” (≥50 = +++) | 616 (VLIDEVESL; listed as Homo sapiens) [compound 616]
77 | “+++” (≥50 = +++) | 201 (RLVDYLEGI; listed as Homo sapiens) [compound 201]
78 | “++++” (≥75% = ++++) | 62 (VLLDVSAGQLLM; listed as Homo sapiens) [compound 62]
